{"source": "patent US7947285B2", "about": "“Methods for preventing post endoscopic retrograde cholangiopancreatography pancreatitis” (priority 2003, dated 2011)", "key": {"patients undergoing ERCP [1]": {"tested_on": "patients undergoing ERCP", "experiment": "Adverse events", "assay_type": "in vivo, human", "experimental": "(§1) This study evaluated the following safety variables: (1) Adverse events; (2) Vital signs; (3) Serum Amylase (when clinically indicated); and (4) Serum Lipase (when clinically indicated). No drug concentration measurements were assessed in this study.\n(§2) Primary and secondary efficacy variables were compared between the treatment groups using the Fisher Exact Test or Cochran-Mantel Haenszel Association Test. Adverse events and vital signs (heart rate, blood pressure) were compared between the treatment groups using the t-test. The clinical assumption on which the power calculation is based was on incidence of post-ERCP pancreatitis among all patients without pancreas divisum of 6%. In order to show a 50% reduction in the rate of post-ERCP pancreatitis with a significance of p=0.05, at a power of 80%, 749 evaluable patients per treatment group (sPS vs. placebo) were needed."}, "patients undergoing ERCP [2]": {"tested_on": "patients undergoing ERCP", "experiment": "Vital signs (systolic and diastolic BP, pulse) pre and post ERCP", "assay_type": "in vivo, human", "experimental": "as §1, §2\nSystolic and Diastolic blood pressure and pulse were measured for all patients' pre and post-ERCP procedure."}}, "note": "Where no end group is shown, it is not given here."}
{"substance": "synthetic porcine secretin (HSDGTFTSELSRLRDSARLQRLLQGLV-NH2; ends and bridges not checked; UniProt P63298 33-59, looked up) [SPS, synthetic form of porcine secretin, a 27 amino acid gastrointestinal peptide hormone]", "values": [{"measurement": "Patients with AE related to study drug (%)", "setting": "patients undergoing ERCP [1]; N = 488", "value": 0.2, "unit": "%"}, {"measurement": "Patients with AE related to study drug: number", "setting": "patients undergoing ERCP [1]; N = 488", "value": 1}, {"measurement": "Patients with serious AE (%)", "setting": "patients undergoing ERCP [1]; N = 488", "value": "0 (0) %"}, {"measurement": "Patients with serious AE: number", "setting": "patients undergoing ERCP [1]; N = 488", "value": "0 (0)"}, {"measurement": "Patients with severe AE (%)", "setting": "patients undergoing ERCP [1]; N = 488", "value": 0.2, "unit": "%"}, {"measurement": "Patients with severe AE: number", "setting": "patients undergoing ERCP [1]; N = 488", "value": 1}, {"measurement": "Patients with unknown severity to AE (%)", "setting": "patients undergoing ERCP [1]; N = 488", "value": 0.2, "unit": "%"}, {"measurement": "Patients with unknown severity to AE: number", "setting": "patients undergoing ERCP [1]; N = 488", "value": 1}, {"measurement": "Total No. of AEs related to study drug", "setting": "patients undergoing ERCP [1]; N = 488", "value": 1}, {"measurement": "Total No. of AEs related to study drug (%)", "setting": "patients undergoing ERCP [1]; N = 488", "value": 0.2, "unit": "%"}, {"measurement": "Total No. of serious Aes", "setting": "patients undergoing ERCP [1]; N = 488", "value": "0 (0)"}, {"measurement": "Total No. of serious Aes (%)", "setting": "patients undergoing ERCP [1]; N = 488", "value": "0 (0) %"}, {"measurement": "Total No. of severe Aes", "setting": "patients undergoing ERCP [1]; N = 488", "value": 2}, {"measurement": "Total No. of severe Aes (%)", "setting": "patients undergoing ERCP [1]; N = 488", "value": 0.4, "unit": "%"}, {"measurement": "Total No. of unknown severity to AE", "setting": "patients undergoing ERCP [1]; N = 488", "value": 1}, {"measurement": "Total No. of unknown severity to AE (%)", "setting": "patients undergoing ERCP [1]; N = 488", "value": 0.2, "unit": "%"}, {"measurement": "Total No. of Aes", "setting": "patients undergoing ERCP [1]; N = 488, p 0.0006", "value": 25}, {"measurement": "Total No. of Aes (%)", "setting": "patients undergoing ERCP [1]; N = 488, p 0.0006", "value": 5.1, "unit": "%"}, {"measurement": "Total No. of mild/moderate Aes", "setting": "patients undergoing ERCP [1]; N = 488, p 0.0039", "value": 21}, {"measurement": "Total No. of mild/moderate Aes (%)", "setting": "patients undergoing ERCP [1]; N = 488, p 0.0039", "value": 4.3, "unit": "%"}, {"measurement": "Patients with any AE (%)", "setting": "patients undergoing ERCP [1]; N = 488, p 0.0052", "value": 4.1, "unit": "%"}, {"measurement": "Patients with any AE: number", "setting": "patients undergoing ERCP [1]; N = 488, p 0.0052", "value": 20}, {"measurement": "Patients with mild/moderate AE (%)", "setting": "patients undergoing ERCP [1]; N = 488, p 0.0208", "value": 3.5, "unit": "%"}, {"measurement": "Patients with mild/moderate AE: number", "setting": "patients undergoing ERCP [1]; N = 488, p 0.0208", "value": 17}, {"measurement": "AE judged by the investigator to be related to study drug", "setting": "patients undergoing ERCP [1]; patient #16, mild AE of an hour duration", "value": "drop in blood pressure"}, {"measurement": "overall safety and tolerability", "setting": "patients undergoing ERCP [1]; patients undergoing ERCP, 16 mcg IV", "value": "safe and well tolerated"}, {"measurement": "Diastolic BP post-ERCP, Mean (SD)", "setting": "patients undergoing ERCP [2]; N = 381", "value": "68.7 (13.4) (N = 381) mm/Hg"}, {"measurement": "Pulse post-ERCP, Mean (SD)", "setting": "patients undergoing ERCP [2]; N = 381", "value": "91.0 (20.4) (N = 381)"}, {"measurement": "Systolic BP post-ERCP, Mean (SD)", "setting": "patients undergoing ERCP [2]; N = 381", "value": "131.0 (23.9) (N = 381) mm/Hg"}, {"measurement": "Diastolic BP pre-ERCP, Mean (SD)", "setting": "patients undergoing ERCP [2]; baseline, N = 397", "value": "74.6 (12.8) (N = 397) mm/Hg"}, {"measurement": "Pulse pre-ERCP, Mean (SD)", "setting": "patients undergoing ERCP [2]; baseline, N = 397", "value": "81.0 (15.7) (N = 397)"}, {"measurement": "Systolic BP pre-ERCP, Mean (SD)", "setting": "patients undergoing ERCP [2]; baseline, N = 397", "value": "142.3 (24.9) (N = 397) mm/Hg"}, {"measurement": "Change in Systolic BP, Mean (SD)", "setting": "patients undergoing ERCP [2]; pre to post ERCP, N = 378, p 0.0007", "value": "−11.4 (29.2) (N = 378) mm/Hg"}, {"measurement": "Change in Diastolic BP, Mean (SD)", "setting": "patients undergoing ERCP [2]; pre to post ERCP, N = 378, p 0.1163", "value": "−6.0 (15.3) (N = 378) mm/Hg"}, {"measurement": "Change in Pulse, Mean (SD)", "setting": "patients undergoing ERCP [2]; pre to post ERCP, N = 378, p 0.1324", "value": "9.7 (17.7) (N = 378)"}]}
